Target: T1, bacterially purified His-tagged hemagglutinin (HA)-PKM2 (human, UniProt P14618 1-531)
T1 construct: pyruvate kinase 2 (PKM2), human; also called His-HA-PKM2
Test: pull-down
Conditions: both partners purified

T1 sequence (P14618 whole entry): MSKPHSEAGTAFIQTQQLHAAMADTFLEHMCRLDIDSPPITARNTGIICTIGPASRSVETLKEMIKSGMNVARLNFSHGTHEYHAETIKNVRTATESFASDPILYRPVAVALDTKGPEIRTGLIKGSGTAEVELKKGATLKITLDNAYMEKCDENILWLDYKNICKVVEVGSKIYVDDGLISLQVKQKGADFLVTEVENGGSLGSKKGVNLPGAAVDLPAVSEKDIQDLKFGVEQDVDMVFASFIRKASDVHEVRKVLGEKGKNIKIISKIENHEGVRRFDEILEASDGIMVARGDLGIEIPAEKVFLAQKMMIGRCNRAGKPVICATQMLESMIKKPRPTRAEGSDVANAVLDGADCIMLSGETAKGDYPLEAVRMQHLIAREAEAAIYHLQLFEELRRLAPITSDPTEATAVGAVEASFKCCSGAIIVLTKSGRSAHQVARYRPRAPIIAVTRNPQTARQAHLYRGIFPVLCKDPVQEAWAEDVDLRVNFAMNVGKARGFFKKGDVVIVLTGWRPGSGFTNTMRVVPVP

binding result: binds
B1: bacterially purified GST-tagged Sp100A (natural protein)
chain: not shown
notes: Sp100A, isoform A of human Sp100; also called GST-Sp100A
